koff data for 44 molecules are collected here from US20240209076A1 (KODIAK SCIENCES, published 2024).

The chains are these.
B1: anti-IL-6 Fab, heavy chain V64A (Fab, V domains shown)
VH: EVQLVESGGGLVQPGGSLRLSCAASGFTFSPFAMSWVRQAPGKGLEWVAKISPGGSWTYYSDTATGRFTFSLDTSKSTAYLQMNSLRAEDTAVYYCARQLWGYYALDIWGQGTLVTVSS
VL: DIQLTQSPSSLSASVGDRVTITCSASISVSYMYWYQQKPGKAPKLLIYDMSNLASGVPSRFSGSGSGTDFTLTISSLQPEDFATYYCMQWSGYPYTFGQGTKVEIK
notes: see m39
B2: anti-IL-6 Fab, light chain I47V (Fab, V domains shown)
VH: B1 VH with A64V
VL: B1 VL with I47V
notes: see m39
B3: anti-IL-6 Fab, light chain S51D (Fab, V domains shown)
VH: B1 VH with A64V
VL: B1 VL with S51D
notes: see m39
B4: anti-IL-6 Fab, light chain S24I (Fab, V domains shown)
VH: B1 VH with A64V
VL: B1 VL with S24I
notes: see m39
B5: anti-IL-6 Fab, light chain S26K (Fab, V domains shown)
VH: B1 VH with A64V
VL: B1 VL with S26K
notes: see m39
B6: anti-IL-6 Fab, light chain D49E (Fab, V domains shown)
VH: B1 VH with A64V
VL: B1 VL with D49E
notes: see m39
B7: anti-IL-6 Fab, light chain S28W (Fab, V domains shown)
VH: B1 VH with A64V
VL: B1 VL with S28W
notes: see m39
B8: anti-IL-6 Fab, heavy chain W57F (Fab, V domains shown)
VH: B1 VH with W57F, A64V
VL: B1 VL
notes: see m39
B9: anti-IL-6 Fab, light chain S51K (Fab, V domains shown)
VH: B1 VH with A64V
VL: B1 VL with S51K
notes: see m39
B10: anti-IL-6 Fab, light chain M50E (Fab, V domains shown)
VH: B1 VH with A64V
VL: B1 VL with M50E
notes: see m39
B11: anti-IL-6 Fab, light chain S55I (Fab, V domains shown)
VH: B1 VH with A64V
VL: B1 VL with S55I
notes: see m39
B12: anti-IL-6 Fab, heavy chain V64F (Fab, V domains shown)
VH: B1 VH with A64F
VL: B1 VL
notes: see m39
B13: anti-IL-6 Fab, light chain A54L (Fab, V domains shown)
VH: B1 VH with A64V
VL: B1 VL with A54L
notes: see m39
B14: anti-IL-6 Fab, light chain A54G (Fab, V domains shown)
VH: B1 VH with A64V
VL: B1 VL with A54G
notes: see m39
B15: anti-IL-6 Fab, light chain M32L (Fab, V domains shown)
VH: B1 VH with A64V
VL: B1 VL with M32L
notes: see m39
B16: anti-IL-6 Fab, light chain S26G (Fab, V domains shown)
VH: B1 VH with A64V
VL: B1 VL with S26G
notes: see m39
B17: anti-IL-6 Fab, light chain N52S (Fab, V domains shown)
VH: B1 VH with A64V
VL: B1 VL with N52S
notes: see m39
B18: anti-IL-6 Fab, light chain A25T (Fab, V domains shown)
VH: B1 VH with A64V
VL: B1 VL with A25T
notes: see m39
B19: anti-IL-6 Fab, light chain Q89A (Fab, V domains shown)
VH: B1 VH with A64V
VL: B1 VL with Q89A
notes: see m39
B20: anti-IL-6 Fab, light chain S24K (Fab, V domains shown)
VH: B1 VH with A64V
VL: B1 VL with S24K
notes: see m39
B21: anti-IL-6 Fab, light chain M50D (Fab, V domains shown)
VH: B1 VH with A64V
VL: B1 VL with M50D
notes: see m39
B22: anti-IL-6 Fab, light chain M88A (Fab, V domains shown)
VH: B1 VH with A64V
VL: B1 VL with M88A
notes: see m39
B23: anti-IL-6 Fab, light chain S55R (Fab, V domains shown)
VH: B1 VH with A64V
VL: B1 VL with S55R
notes: see m39
B24: anti-IL-6 Fab, light chain S28E (Fab, V domains shown)
VH: B1 VH with A64V
VL: B1 VL with S28E
notes: see m39
B25: anti-IL-6 Fab, light chain I27F (Fab, V domains shown)
VH: B1 VH with A64V
VL: B1 VL with I27F
notes: see m39
B26: anti-IL-6 Fab, light chain S24P (Fab, V domains shown)
VH: B1 VH with A64V
VL: B1 VL with S24P
notes: see m39
B27: anti-IL-6 Fab, light chain S55L (Fab, V domains shown)
VH: B1 VH with A64V
VL: B1 VL with S55L
notes: see m39
B28: anti-IL-6 Fab, light chain I27L (Fab, V domains shown)
VH: B1 VH with A64V
VL: B1 VL with I27L
notes: see m39
B29: anti-IL-6 Fab, light chain M88V (Fab, V domains shown)
VH: B1 VH with A64V
VL: B1 VL with M88V
notes: see m39
B30: anti-IL-6 Fab, light chain S55P (Fab, V domains shown)
VH: B1 VH with A64V
VL: B1 VL with S55P
notes: see m39
B31: anti-IL-6 Fab, light chain M32V (Fab, V domains shown)
VH: B1 VH with A64V
VL: B1 VL with M32V
notes: see m39
B32: anti-IL-6 Fab, light chain S26H (Fab, V domains shown)
VH: B1 VH with A64V
VL: B1 VL with S26H
notes: see m39
B33: anti-IL-6 Fab, light chain L53R (Fab, V domains shown)
VH: B1 VH with A64V
VL: B1 VL with L53R
notes: see m39
B34: anti-IL-6 Fab, light chain Q89S (Fab, V domains shown)
VH: B1 VH with A64V
VL: B1 VL with Q89S
notes: see m39
B35: anti-IL-6 Fab, light chain A54Y (Fab, V domains shown)
VH: B1 VH with A64V
VL: B1 VL with A54Y
notes: see m39
B36: anti-IL-6 Fab, light chain S24V (Fab, V domains shown)
VH: B1 VH with A64V
VL: B1 VL with S24V
notes: see m39
B37: anti-IL-6 Fab, light chain L53H (Fab, V domains shown)
VH: B1 VH with A64V
VL: B1 VL with L53H
notes: see m39
B38: anti-IL-6 Fab, light chain A25S (Fab, V domains shown)
VH: B1 VH with A64V
VL: B1 VL with A25S
notes: see m39
B39: anti-IL-6 Fab, light chain S30A (Fab, V domains shown)
VH: B1 VH with A64V
VL: B1 VL with S30A
notes: see m39
B40: anti-IL-6 Fab, light chain L53W (Fab, V domains shown)
VH: B1 VH with A64V
VL: B1 VL with L53W
notes: see m39
B41: anti-IL-6 Fab, light chain L46V (Fab, V domains shown)
VH: B1 VH with A64V
VL: B1 VL with L46V
notes: see m39
B42: anti-IL-6 Fab, light chain S30G (Fab, V domains shown)
VH: B1 VH with A64V
VL: B1 VL with S30G
notes: see m39
B43: anti-IL-6 Fab, light chain I27W (Fab, V domains shown)
VH: B1 VH with A64V
VL: B1 VL with I27W
notes: see m39
B44: anti-IL-6 Fab, light chain S51R (Fab, V domains shown)
VH: B1 VH with A64V
VL: B1 VL with S51R
notes: see m39

Positions count from the first letter of the chain named.

recombinant human IL-6, sequence (P05231 30-212 limits assumed): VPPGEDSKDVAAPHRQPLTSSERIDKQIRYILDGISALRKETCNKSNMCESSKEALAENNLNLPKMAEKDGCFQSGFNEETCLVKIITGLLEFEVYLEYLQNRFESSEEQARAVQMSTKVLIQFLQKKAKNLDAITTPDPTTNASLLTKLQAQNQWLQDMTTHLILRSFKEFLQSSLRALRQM

The test deals with recombinant human IL-6 (human, UniProt P05231 30-212). In words: SPR, IL-6 on CM5 chip, Fab lysate, 25 C. The method, then:
Three ranges of antigen density (100-150 RU, 300-400 RU, 400-600 RU) were obtained by using variable flow times for each chip channel, later blocked with ethanolamine. Supernatants of the 96-well filtered culture lysates were injected at 50 μL/min for 120 seconds. Fitting of dissociation curves (300 seconds) to single exponential decay curve was used for the determination of dissociation rates (koff). Chip surfaces were regenerated with 10 mM Glycine pH 1.7 solution injected at 50 μL/min during 60 seconds after every cycle of sample binding and dissociation.
(SPR reads the build-up and loss of mass on a sensor chip optically.)
Consider B1, for which the koff (in general, the rate constant with which the complex falls apart) came to 0.00643 s⁻¹.

On to B2, for which the koff was determined as 0.00493 s⁻¹.

B3: the koff came to 0.00466 s⁻¹.

Regarding B4, the off-rate constant (koff) turned out to be 0.00412 s⁻¹.

Turning to B5, the off-rate (koff) worked out at 0.00441 s⁻¹.

In the case of B6, the koff was determined as 0.00619 s⁻¹.

In the case of B7, the koff was 0.00398 s⁻¹.

For B8, the koff was 0.00615 s⁻¹.

As to B9, the dissociation rate constant (koff) came to 0.00461 s⁻¹.

Turning to B10, the koff turned out to be 0.00476 s⁻¹.

Consider B11, for which the koff is 0.00505 s⁻¹.

On to B12, for which the koff worked out at 0.00684 s⁻¹.

For the molecule B13, the off-rate constant (koff) was 0.00489 s⁻¹.

In the case of B14, the off-rate constant (koff) was 0.00498 s⁻¹.

Turning to B15, the koff turned out to be 0.00492 s⁻¹.

As for B16, the off-rate (koff) was determined as 0.00394 s⁻¹.

For the molecule B17, the off-rate (koff) worked out at 0.00555 s⁻¹.

B18: the koff worked out at 0.00479 s⁻¹.

Take B19: the dissociation rate constant (koff) came out at 0.00585 s⁻¹.

In the case of B20, the koff was found to be 0.00416 s⁻¹.

In the case of B21, the koff turned out to be 0.00458 s⁻¹.

With B22, the off-rate constant (koff) amounted to 0.00479 s⁻¹.

For the molecule B23, the koff turned out to be 0.00526 s⁻¹.

Turning to B24, the off-rate constant (koff) turned out to be 0.00451 s⁻¹.

B25: the koff stood at 0.00594 s⁻¹.

As to B26, the koff turned out to be 0.00397 s⁻¹.

For B27, the koff amounted to 0.00507 s⁻¹.

For B28, the koff came to 0.00593 s⁻¹.

Consider B29, for which the koff stood at 0.00495 s⁻¹.

B30: the koff is 0.0052 s⁻¹.

B31: the koff was 0.00455 s⁻¹.

In the case of B32, the koff is 0.00427 s⁻¹.

For the molecule B33, the koff was 0.005 s⁻¹.

Take B34: the koff came to 0.00601 s⁻¹.

For the molecule B35, the koff stood at 0.00525 s⁻¹.

On to B36, for which the off-rate constant (koff) is 0.00416 s⁻¹.

On to B37, for which the dissociation rate constant (koff) stood at 0.00498 s⁻¹.

Regarding B38, the off-rate (koff) stood at 0.0048 s⁻¹.

B39: the koff worked out at 0.00654 s⁻¹.

Regarding B40, the off-rate (koff) is 0.00501 s⁻¹.

For the molecule B41, the koff was determined as 0.00503 s⁻¹.

B42: the off-rate (koff) was 0.00677 s⁻¹.

As to B43, the koff amounted to 0.00569 s⁻¹.

Turning to B44, the off-rate constant (koff) stood at 0.00467 s⁻¹.
